The target in data set [1] is Ec-DHDPS (dimer) (Escherichia coli) (UniProt P0A6L2). The conditions noted are these: cited from earlier work.
Substrate in data set [2]: CC(=O)C(=O)O
The data set is described as follows: purified protein. The conditions noted are these: co-substrate (S)-ASA 0-0.48 mM, 250 mM HEPES pH 8.0, 30 °C, 0.2 mM NADPH, 20 nM enzyme, global ping-pong fit without substrate inhibition.
Text: (§1) DHDPS-DHDPR coupled assay, NADPH oxidation on Sp-DHDPS (dihydrodipicolinate synthase)

Substrate in data set [3]: N[C@@H](CC=O)C(=O)O
Briefly: purified protein. Conditions: co-substrate pyruvate 0.5-16 mM, 250 mM HEPES pH 8.0, 30 °C, 0.2 mM NADPH, 20 nM enzyme, global ping-pong fit without substrate inhibition.
Text: as §1

Data set [4] deals with the molecule itself. The data set is described as follows: AUC; sedimentation velocity, 40,000 rpm, 20°C, 20 mM Tris-HCl pH 8.0, 150 mM NaCl; Sp-DHDPS at 4.5 µM and at 740 nM; c(s) and c(M) distributions (SEDFIT).
Data set [5] deals with the molecule itself. The data set is described as follows: AUC; sedimentation equilibrium, 10,000 and 18,000 rpm, 20°C, 20 mM Tris-HCl pH 8.0, 150 mM NaCl; 296, 355 and 740 nM Sp-DHDPS; global fit to a dimer-tetramer model (SEDPHAT); tetramer to dimers.

The values that follow come from publication PMC3862839, “From Knock-Out Phenotype to Three-Dimensional Structure of a Promising Antibiotic Target from Streptococcus pneumoniae” (PLoS ONE, 2013).

What is called Kd is a measure of binding affinity in units of concentration. On to Ec-DHDPS (dimer) (from UniProt P0A6L2), for which the Kd in data set [1] is 76 nM.

B1: Streptococcus pneumoniae dihydrodipicolinate synthase (enzyme, UniProt Q97R25 1-311, looked up)
chain: MSYQDLKKCKIITAFITPFHEDGSINFDAIPALIEHLLAHHTDGILLAGTTAESPTLTHDEELELFAAVQKVVNGRVPLIAGVGTNDTRDSIEFVKEVAEFGGFAAGLAIVPYYNKPSQEGMYQHFKTIADASDLPIIIYNIPGRVVVELTPETMLRLADHPNIIGVKECTSLANMAYLIEHKPEEFLIYTGEDGDAFHAMNLGADGVISVASHTNGDEMHEMFTAIAESDMKKAAAIQRKFIPKVNALFSYPSPAPVKAILNYMGFEAGPTRLPLVPAPEEDAKRIIKVVVDGDYEATKATVTGVLRPDY
notes: Dihydrodipicolinate synthase (DHDPS, product of dapA) of Streptococcus pneumoniae; Homotetramer (dimer of 'tight' dimers) in solution and in the crystal; also called Sp-DHDPS; sp-DHDPS
As usually defined, the Km is the concentration of substrate that gives half-maximal velocity. For orientation: kcat means the maximal rate divided by the concentration of active sites. Broadly, the stoichiometry N is a count of units in the complex or per binding partner. As for B1, in the data set “purified protein [2]”, the Km was 2550 ± 50 µM and the kcat worked out at 22 s⁻¹. In addition, in “purified protein [3]”, the Km was determined as 44 ± 3 µM and the kcat was found to be 22 s⁻¹. For the same molecule, the “stoichiometry N” value in data set [4] is 4. Further, in data set [5], the affinity, expressed as Kd, was 1.7 nM.
